In paper doi:10.1101/047555 one finds fold tighter binding than the PDZ2 peptide data, which are given here for one molecule.

The target in the experiment is EP12, C-terminal region of MamE containing only the PDZ domains (Magnetospirillum magneticum AMB-1). The experiment is described as follows: fluorescence polarisation.

Where no end group is shown, it is not given here. fluorescein = fluorescein-aminocaproic acid; Ahx = NCCCCCC(=O)O

B1: PDZ1* peptide (fluorescein-labelled, phage-derived ligand of MamE PDZ1) (peptide)
peptide: {fluorescein-Ahx}-WSQEMEDWFWQMPLSG
On to B1, for which the fold tighter binding than the PDZ2 peptide was found to be 10 fold.
